Reference: article PMC6531468, “Combinatorial recognition of clustered RNA elements by the multidomain RNA-binding protein IMP3”
Positions count from the first letter of the chain named.

Experiments:
IMP3 dKH1-2 = IMP3 dKH1-2 (Homo sapiens, UniProt O00425 1-579, K213D;E214D;K294D;E295D); test: EMSA; Hill n 1.9; EMSA: 10 mM Tris-HCl pH 7.5, 150 mM NaCl, 0.5 mM EDTA, 0.5 mM DTT, 0.1% NP-40, 5% glycerol, tRNA+BSA, 5 nM RNA, 30 min RT then ice; ITC/NMR: 20 mM Bis-Tris, 150 mM NaCl, 2 mM TCEP (protein buffer pH 6.5), ITC RT, NMR 25 C; conditions: protein: recombinant; tags: GST; label: 32P-UTP
IMP3 dRRM1 = IMP3 dRRM1 (Homo sapiens, UniProt O00425 1-579, Y5A;Y39A;F41A); test: EMSA; Hill n 2.8; EMSA: 10 mM Tris-HCl pH 7.5, 150 mM NaCl, 0.5 mM EDTA, 0.5 mM DTT, 0.1% NP-40, 5% glycerol, tRNA+BSA, 5 nM RNA, 30 min RT then ice; ITC/NMR: 20 mM Bis-Tris, 150 mM NaCl, 2 mM TCEP (protein buffer pH 6.5), ITC RT, NMR 25 C; conditions: protein: recombinant; tags: GST; label: 32P-UTP
IMP3 full-length [1] = molecular target: T1, IMP3 full-length (Homo sapiens, UniProt O00425 1-579); test: EMSA; tRNA and BSA competitors; EMSA: 10 mM Tris-HCl pH 7.5, 150 mM NaCl, 0.5 mM EDTA, 0.5 mM DTT, 0.1% NP-40, 5% glycerol, tRNA+BSA, 5 nM RNA, 30 min RT then ice; ITC/NMR: 20 mM Bis-Tris, 150 mM NaCl, 2 mM TCEP (protein buffer pH 6.5), ITC RT, NMR 25 C; conditions: protein: recombinant; tags: N-terminal GST (pGEX-6P2); C-terminal His6 removed by TEV; label: 32P-UTP
IMP3 full-length [2] = molecular target: T1, IMP3 full-length; test: EMSA; EMSA: 10 mM Tris-HCl pH 7.5, 150 mM NaCl, 0.5 mM EDTA, 0.5 mM DTT, 0.1% NP-40, 5% glycerol, tRNA+BSA, 5 nM RNA, 30 min RT then ice; ITC/NMR: 20 mM Bis-Tris, 150 mM NaCl, 2 mM TCEP (protein buffer pH 6.5), ITC RT, NMR 25 C; conditions: protein: recombinant; tags: N-terminal GST (pGEX-6P2); C-terminal His6 removed by TEV; label: 32P-UTP
IMP3 RRM1-2 = IMP3 RRM1-2 (Homo sapiens, UniProt O00425 2-156); test: ITC; EMSA: 10 mM Tris-HCl pH 7.5, 150 mM NaCl, 0.5 mM EDTA, 0.5 mM DTT, 0.1% NP-40, 5% glycerol, tRNA+BSA, 5 nM RNA, 30 min RT then ice; ITC/NMR: 20 mM Bis-Tris, 150 mM NaCl, 2 mM TCEP (protein buffer pH 6.5), ITC RT, NMR 25 C; conditions: protein: recombinant; tags: Trx-His6 removed by TEV; primer note: GA-MA-K3 N-terminus
IMP3 KH1-d2 = IMP3 KH1-d2 (Homo sapiens, UniProt O00425 192-355, K294D;E295D); test: as above; conditions: protein: recombinant; tags: Trx-His6 removed by TEV, leaves GAMA
IMP3 KHd1-2 = IMP3 KHd1-2 (Homo sapiens, UniProt O00425 192-355, K213D;E214D); test: as above; conditions: protein: recombinant; tags: Trx-His6 removed by TEV, leaves GAMA
IMP3 KH1-2 WT = IMP3 KH1-2 WT (Homo sapiens, UniProt O00425 192-355); test: as above; conditions: protein: recombinant; tags: Trx-His6 removed by TEV, leaves GAMA
Sequence of IMP3 KH1-2 WT (O00425 192-355): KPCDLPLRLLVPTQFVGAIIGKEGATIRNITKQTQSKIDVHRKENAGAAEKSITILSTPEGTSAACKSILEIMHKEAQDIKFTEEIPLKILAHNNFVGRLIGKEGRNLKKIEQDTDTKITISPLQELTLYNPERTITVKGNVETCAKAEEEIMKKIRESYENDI

T1 sequence (O00425 whole entry): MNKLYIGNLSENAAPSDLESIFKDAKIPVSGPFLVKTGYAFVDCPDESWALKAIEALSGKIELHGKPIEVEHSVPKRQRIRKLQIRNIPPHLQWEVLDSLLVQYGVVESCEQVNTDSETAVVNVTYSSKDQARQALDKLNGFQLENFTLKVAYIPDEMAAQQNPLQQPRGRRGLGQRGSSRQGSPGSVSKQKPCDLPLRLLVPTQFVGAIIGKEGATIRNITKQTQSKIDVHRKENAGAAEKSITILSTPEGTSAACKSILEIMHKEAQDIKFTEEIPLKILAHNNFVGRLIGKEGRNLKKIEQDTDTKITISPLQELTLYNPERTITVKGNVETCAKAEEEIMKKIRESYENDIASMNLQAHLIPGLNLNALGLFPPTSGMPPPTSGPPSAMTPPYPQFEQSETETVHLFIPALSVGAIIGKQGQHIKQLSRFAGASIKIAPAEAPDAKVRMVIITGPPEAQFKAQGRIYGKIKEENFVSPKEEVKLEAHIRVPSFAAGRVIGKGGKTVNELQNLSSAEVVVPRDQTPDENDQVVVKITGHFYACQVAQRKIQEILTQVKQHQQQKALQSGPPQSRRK
Sequence of IMP3 RRM1-2 (O00425 2-156): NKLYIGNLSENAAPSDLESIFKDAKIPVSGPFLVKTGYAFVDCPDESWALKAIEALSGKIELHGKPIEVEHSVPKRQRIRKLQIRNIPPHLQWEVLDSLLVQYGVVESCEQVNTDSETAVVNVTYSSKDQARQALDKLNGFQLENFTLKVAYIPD
Sequence of IMP3 KH1-d2 (O00425 192-355 K294D/E295D): as the sequence (O00425 192-355) above, with K103D, E104D counted along it
Sequence of IMP3 dKH1-2 (O00425 whole entry K213D/E214D/K294D/E295D): as the sequence (O00425 whole entry) above, with K213D, E214D, K294D, E295D counted along it
Sequence of IMP3 KHd1-2 (O00425 192-355 K213D/E214D): as the sequence (O00425 192-355) above, with K22D, E23D counted along it
Sequence of IMP3 dRRM1 (O00425 whole entry Y5A/Y39A/F41A): as the sequence (O00425 whole entry) above, with Y5A, Y39A, F41A counted along it

B1: 101-mer (ssRNA)
RNA: GGGAGGGAGGAAGGCAAUUUUGGAGGAACUACAGAACACAUAUCGCAGCUAAAACACAAUUUUGGAGGAACUACAGAAUGCGGCUAUCCACACACAAAGGG
B1 was tested, and the Kd (IMP3 dKH1-2) was 50.7 ± 1.6 nM, the Kd (IMP3 dRRM1) was 29.2 ± 1 nM and the Kd (IMP3 full-length [1]) was 3.5 ± 0.7 nM.

B2: 101-mer GGC<->CA (ssRNA)
RNA: B1 RNA with A56G, C57G, A58C, A59U, U60A, G82A, G83C, C84A
In the case of B2, the Kd (IMP3 full-length [2]) is reported as 15.4 ± 0.6 nM.

B3: 101-mer GGC->UG (ssRNA)
RNA: B1 RNA with G13U, C15U, A16G, C81U, G83U, C84G
Work on B3 yielded a Kd (IMP3 full-length [2]) of 23.8 ± 0.7 nM.

For CACACACACA (ssRNA) [(CA)5], the Kd (IMP3 RRM1-2) was 9000 ± 2000 nM.

GUGUGUGUGU (ssRNA) [(GU)5] was tested, and the Kd (IMP3 RRM1-2) was 49000 ± 3000 nM.

B4: 101-mer (CA)4<-> (ssRNA)
RNA: GGGAGGGACACACACAGGAAGGCAAUUUUGGAGGAACUACAGAACACAUAUCGCAGCUAAAACACAAUUUUGGAGGAACUACAGAAUGCGGCUAUCAAGGG
With B4 the Kd (IMP3 full-length [2]) was 5.6 ± 0.8 nM.

For UCGGCAC (ssRNA) [GGC (CGG) 7-mer], the Kd (IMP3 KH1-d2) was 39000 ± 8000 nM, the binding result (IMP3 KHd1-2) was “no binding” and the Kd (IMP3 KH1-2 WT) was 45000 ± 8000 nM.

B5: ANKRD17 exon 29 (ssRNA)
RNA: GGGUCUGUCCGAAGGCAGCUUUUUGUCACAGUUGUGAAGACAUCCAAUCGCCACACAACAACAGUCACAACCACGGCAAGCAACAACAACACUGCACCCACAAAUGCCACAUAUCCUAUGC
With B5 the Kd (IMP3 full-length [2]) was 1.6 ± 0.4 nM.

CACACA (ssRNA) [(CA)3] showed a Kd (IMP3 RRM1-2) of 8000 ± 3000 nM.

B6: 101-mer CA->UG (ssRNA)
RNA: GGGAGGGAGGAAGGCAAUUUUGGAGGAACUACAGAAUGUGUAUCGCAGCUAAAAUGUGAUUUUGGAGGAACUACAGAAUGCGGCUAUCUGUGUGUGAAGGG
For B6, the Kd (IMP3 full-length [2]) was 70.5 ± 3.2 nM.

B7: 101-mer GGC<->CA_UG (ssRNA)
RNA: B6 RNA with U55C, U57G, G58C, A59U, U60A, C81U, G83U, C84G
B7 showed a Kd (IMP3 full-length [2]) of 34.9 ± 0.7 nM.

B8: 101-mer allUG (ssRNA)
RNA: B6 RNA with G13U, C15U, A16G, C81U, G83U, C84G
For B8, the Kd (IMP3 full-length [2]) was 61.1 ± 3.6 nM.

AACACAA (ssRNA) [CA 7-mer]: no binding (IMP3 KH1-d2).
